Earlier results on one molecule are cited in PMC6535718 (Journal of the American Chemical Society, 2019).

What is called Kd is a measure of binding affinity in units of concentration.

The data set concerns the target BfrB. The conditions noted are these: read-out: Kd of Bfd binding to BfrB; complex in solution.

B1: Bfd: bacterioferritin-associated ferredoxin, cognate partner of BfrB in P. aeruginosa (protein, UniProt Q9HY80 1-73, looked up)
Bacterioferritin-associated …: MYVCLCQGVTDNQIRDAIYEGCCSYREVREATGVGTQCGKCACLAKQVVRETLNDLQSAQPVPAFGTTAFVAA
Turning to B1, the Kd is roughly 3000 nM.
